Source: patent US20100136580A1 (Genentech, published 2010)

T1: GST-Dvl2PDZ fusion protein (human, UniProt O14641 248-364)
T1 construct: range 248-364; Made with the pGEX E. coli expression system; also called GST-PDZ fusion protein; not shown: glutathione S-transferase (GST) encoded by plasmid pGEX
T1 sequence (looked up): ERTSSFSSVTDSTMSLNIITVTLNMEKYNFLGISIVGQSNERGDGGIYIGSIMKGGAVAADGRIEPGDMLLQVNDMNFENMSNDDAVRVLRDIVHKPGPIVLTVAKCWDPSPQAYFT


Target: T1, GST-Dvl2PDZ fusion protein
Experiment: phage display selection on GST-Dvl2PDZ
Description: The libraries were cycled through rounds of binding selection with a GST-Dvl2PDZ fusion protein coated on 96-well Maxisorp immunoplates as the capture target. Phage were propagated in E. coli XL1-blue with M13-KO7 helper phage and 10 μM IPTG. After four rounds of binding selection, individual phage clones were analyzed in a high-throughput phage ELISA, and positive clones were subjected to DNA sequence analysis.
We used decapeptide libraries fused to the C-terminus or N-terminus of the phage coat protein. The library contained NNK degenerate codons that encoded all 20 natural amino acids. The possible occurrence of amber stop codons in the degenerate codon also provided for the display of shorter peptides for the C-terminal library. Each library was cycled through four rounds of binding selection with immobilized GST-Dvl2PDZ fusion protein as the capture target.

Binding result, binds:
LKFYGWIDGGG [SEQ ID NO 106]
YTKYYGWIDTGG [SEQ ID NO 86]
YTDYGWIDQSG [SEQ ID NO 103]
GFLTHYGWLDGGG [SEQ ID NO 109]
SHWKYYGWIDGGG [SEQ ID NO 101]
SMVLWWDVPS [SEQ ID NO 124]
WVMLWSDLPA [SEQ ID NO 137]
VSLINYGWIDGGG [SEQ ID NO 107]
WVMLWSDLPA [SEQ ID NO 139]
LTMYGWIDGKG [SEQ ID NO 115]
FTWRDYGWLDGGG [SEQ ID NO 84]
GLVLLWTDIP [SEQ ID NO 143]
RRMLWSDIPG [SEQ ID NO 142]
TRFTNYGWLDGGG [SEQ ID NO 91]
VKYYGYIDGGG [SEQ ID NO 82]
SIVLWSDIPS [SEQ ID NO 135]
SLQWYGWIDSGG [SEQ ID NO 93]
SHWKYYGWIDGGG [SEQ ID NO 96]
WVEYGWIDSGG [SEQ ID NO 83]
WTNVLWTDIP [SEQ ID NO 133]
YTKYYGWIDTGG [SEQ ID NO 104]
WISGWIDYPP [SEQ ID NO 95]
WWVDYGFVDGGG [SEQ ID NO 105]
SIVLWSDIPS [SEQ ID NO 121]
SIVLWTDIPS [SEQ ID NO 123]
AWIVDYGWIDGGG [SEQ ID NO 89]
AWIVDYGWIDGGG [SEQ ID NO 102]
VNLVEYGWVDGGG [SEQ ID NO 116]
IKLVQYGWIDGGG [SEQ ID NO 111]
QSHTCYGWIDGGG [SEQ ID NO 81]
TWMDYGWLDQGG [SEQ ID NO 87]
AHTTFYGWIDGGG [SEQ ID NO 100]
EMITLWSDLP [SEQ ID NO 129]
GGRMALGWLDGGG [SEQ ID NO 88]
ELWIDGPHVM [SEQ ID NO 134]
NEQLLWTDIP [SEQ ID NO 118]
SIIYYGWLDGGG [SEQ ID NO 99]
LQLLWSDIPG [SEQ ID NO 131]
SIVLWSDIPS [SEQ ID NO 127]
ITDYGWVDGPG [SEQ ID NO 97]
IKLVQYGWIDGGG [SEQ ID NO 108]
TDYGWIDYPP [SEQ ID NO 90]
QQLLWSDIP [SEQ ID NO 120]
EVLWSDFPPM [SEQ ID NO 119]
EVLWADFPPM [SEQ ID NO 122]
SIVLWSDIPS [SEQ ID NO 140]
VKYYGYIDGGG [SEQ ID NO 113]
EMDLLWTDIP [SEQ ID NO 132]
VSLINYGWIDGGG [SEQ ID NO 94]
LKFYGWIDGGG [SEQ ID NO 92]
TNLLWSDIPP [SEQ ID NO 125]
SWETLWSDFP [SEQ ID NO 117]
QLVELWSDIP [SEQ ID NO 136]
HITVDYGWIDGGG [SEQ ID NO 114]
TLLHFYGYIDGGG [SEQ ID NO 85]
EVLWSDFPPM [SEQ ID NO 128]
EVLWSDFPPM [SEQ ID NO 141]
GLVLLWDDFP [SEQ ID NO 130]
AMFHEYGWIDGGG [SEQ ID NO 110]
MWYVDYGWVDGGG [SEQ ID NO 98]
MVDYGWIDYWG [SEQ ID NO 112]
EMITLWSDLP [SEQ ID NO 138]
